Assays:
[1] = target: GST-Nedd8, Q15843
[2] = target: GST-Ub, P0CG48
[3] = target: T1, Use1 purified from bacteria
T1 chain: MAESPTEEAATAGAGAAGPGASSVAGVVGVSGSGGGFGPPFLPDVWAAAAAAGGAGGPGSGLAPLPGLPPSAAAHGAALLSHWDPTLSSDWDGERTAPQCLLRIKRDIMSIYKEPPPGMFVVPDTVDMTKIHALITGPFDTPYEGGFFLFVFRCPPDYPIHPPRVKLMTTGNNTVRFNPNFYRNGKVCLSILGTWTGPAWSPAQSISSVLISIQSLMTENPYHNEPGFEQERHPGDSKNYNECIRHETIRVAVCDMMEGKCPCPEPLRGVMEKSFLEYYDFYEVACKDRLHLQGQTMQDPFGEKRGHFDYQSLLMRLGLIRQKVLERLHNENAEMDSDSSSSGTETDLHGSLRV

[4] = target: GST-ISG15, P05161
Chain of GST-ISG15, P05161 (P05161 1-157): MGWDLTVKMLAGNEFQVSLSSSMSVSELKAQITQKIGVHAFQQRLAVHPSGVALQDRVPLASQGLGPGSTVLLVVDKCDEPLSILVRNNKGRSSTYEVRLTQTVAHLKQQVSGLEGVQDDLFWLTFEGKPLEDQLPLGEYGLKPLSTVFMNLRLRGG

Chain of GST-Ub, P0CG48 (P0CG48 whole entry, looked up): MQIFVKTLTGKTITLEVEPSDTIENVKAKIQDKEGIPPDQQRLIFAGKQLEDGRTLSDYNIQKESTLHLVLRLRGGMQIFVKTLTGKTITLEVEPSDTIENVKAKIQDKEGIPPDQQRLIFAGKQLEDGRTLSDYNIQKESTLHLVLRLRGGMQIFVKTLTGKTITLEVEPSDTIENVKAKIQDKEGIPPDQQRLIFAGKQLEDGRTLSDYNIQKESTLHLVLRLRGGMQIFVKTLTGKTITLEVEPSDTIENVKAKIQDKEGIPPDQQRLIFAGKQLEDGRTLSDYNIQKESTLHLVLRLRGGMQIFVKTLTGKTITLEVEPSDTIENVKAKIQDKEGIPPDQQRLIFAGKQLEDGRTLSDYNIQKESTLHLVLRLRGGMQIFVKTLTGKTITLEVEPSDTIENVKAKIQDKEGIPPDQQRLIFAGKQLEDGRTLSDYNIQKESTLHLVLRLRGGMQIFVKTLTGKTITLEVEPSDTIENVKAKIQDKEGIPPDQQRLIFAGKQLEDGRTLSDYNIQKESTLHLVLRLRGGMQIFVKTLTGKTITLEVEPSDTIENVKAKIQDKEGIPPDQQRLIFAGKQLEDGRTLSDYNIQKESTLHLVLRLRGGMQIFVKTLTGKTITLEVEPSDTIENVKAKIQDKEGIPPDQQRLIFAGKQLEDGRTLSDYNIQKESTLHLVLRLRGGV
Chain of GST-Nedd8, Q15843 (Q15843 whole entry, looked up): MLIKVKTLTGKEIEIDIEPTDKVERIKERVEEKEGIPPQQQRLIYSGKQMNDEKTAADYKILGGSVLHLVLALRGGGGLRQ

B1: Flag-tagged Uba6 (protein)
chain: MEGSEPVAAHQGEKASCSSWGTGSTNKNLPIMSTASVEIDDALYSRQRYVLGDTAMQKMAKSHVFLSGMGGLGLEIAKNLVLAGIKAVTIHDTEKCQAWDLGTNFFLSEDDVVNKRNRAEAVLKHIAELNPYVHVTSSSAPFNETTDLSFLDKYQCVVLTEMKLPLQKKINDFCRSQCPPIKFISADVHGIWSRLFCDFGDEFEVLDTTGEEPKEIFISNITQTNPGIVTCLENHPHKLETGQFLTFREINGMTGLNGSIQQITVISPFSFSIGDTTELEPYLHGGIAVQVKTPKTVFFESLERQLKHPKCLIVDFSNPEAPLEIHTAMLALDQFQEKYSRKPNVGCQQDSEELLKLATSISETLEEKPDVNADIVHWLSWTAQGFLSPLAAAVGGVASQEVLKAVTGKFSPLCQWLYLEAADIVESLGKPECEEFLPRGDRYDALRACIGDTLCQKLQNLNIFLVGCGAIGCEMLKNFALLGVGTSKEKGMITVTDPDLIEKSNLNRQFLFRPHHIQKPKSYTAADATLKINSQIKIDAHLNKVCPTTETIYNDEFYTKQDVIITALDNVEARRYVDSRCLANLRPLLDSGTMGTKGHTEVIVPHLTESYNSHRDPPEEEIPFCTLKSFPAAIEHTIQWARDKFESSFSHKPSLFNKFWQTYSSAEEVLQKIQSGHSLEGCFQVIKLLSRRPRNWSQCVELARLKFEKYFNHKALQLLHCFPLDIRLKDGSLFWQSPKRPPSPIKFDLNEPLHLSFLQNAAKLYATVYCIPFAEEDLSADALLNILSEVKIQEFKPSNKVVQTDETARKPDHVPISSEDERNAIFQLEKAILSNEATKSDLQMAVLSFEKDDDHNGHIDFITAASNPRAKMYSIEPADRFKTKRIAGKIIPAIATTTATVSGLVALEMIKVTGGYPFEAYKNCFLNLAIPIVVFTETTEVRKTKIRNGISFTIWDRWTVHGKEDFTLLDFINAVKEKYGIEPTMVVQGVKMLYVPVMPGHAKRLKLTMHKLVKPTTEKKYVDLTVSFAPDIDGDEDLPGPPVRYYFSHDTD
activation in vitro, titration of GST-Nedd8, anti-Flag immunoblot; result: not activated [1]: Uba6 activated GST-Ub but not GST-Nedd8
activation in vitro, titration of GST-Ub, anti-Flag immunoblot; result: activated [2]: Uba6 activated GST-Ub but not GST-Nedd8
ubiquitin activation in vitro (non-reducing SDS-PAGE, Coomassie); result: activated [2]: Uba6 could activate ubiquitin
charging of purified Use1 (2.5 µM) with increasing Flag-Uba6, 25 µM ubiquitin, 2 mM ATP; result: charged [3]: Charging of purified Use1 by Uba6

B2: Uba3/APPBP1 (protein)
chain 1: MADGEEPEKKRRRIEELLAEKMAVDGGCGDTGDWEGRWNHVKKFLERSGPFTHPDFEPSTESLQFLLDTCKVLVIGAGGLGCELLKNLALSGFRQIHVIDMDTIDVSNLNRQFLFRPKDIGRPKAEVAAEFLNDRVPNCNVVPHFNKIQDFNDTFYRQFHIIVCGLDSIIARRWINGMLISLLNYEDGVLDPSSIVPLIDGGTEGFKGNARVILPGMTACIECTLELYPPQVNFPMCTIASMPRLPEHCIEYVRMLQWPKEQPFGEGVPLDGDDPEHIQWIFQKSLERASQYNIRGVTYRLTQGVVKRIIPAVASTNAVIAAVCATEVFKIATSAYIPLNNYLVFNDVDGLYTYTFEAERKENCPACSQLPQNIQFSPSAKLQEVLDYLTNSASLQMKSPAITATLEGKNRTLYLQSVTSIEERTRPNLSKTLKELGLVDGQELAVADVTTPQTVLFKLHFTS
chain 2: MAQLGKLLKEQKYDRQLRLWGDHGQEALESAHVCLINATATGTEILKNLVLPGIGSFTIIDGNQVSGEDAGNNFFLQRSSIGKNRAEAAMEFLQELNSDVSGSFVEESPENLLDNDPSFFCRFTVVVATQLPESTSLRLADVLWNSQIPLLICRTYGLVGYMRIIIKEHPVIESHPDNALEDLRLDKPFPELREHFQSYDLDHMEKKDHSHTPWIVIIAKYLAQWYSETNGRIPKTYKEKEDFRDLIRQGILKNENGAPEDEENFEEAIKNVNTALNTTQIPSSIEDIFNDDRCINITKQTPSFWILARALKEFVAKEGQGNLPVRGTIPDMIADSGKYIKLQNVYREKAKKDAAAVGNHVAKLLQSIGQAPESISEKELKLLCSNSAFLRVVRCRSLAEEYGLDTINKDEIISSMDNPDNEIVLYLMLRAVDRFHKQQGRYPGVSNYQVEEDIGKLKSCLTGFLQEYGLSVMVKDDYVHEFCRYGAAEPHTIAAFLGGAAAQEVIKIITKQFVIFNNTYIYSGMSQTSATFQL
activation in vitro (non-reducing gel); result: activated [1]: GST-Nedd8 is activated by Uba3/APPBP1 in vitro

B3: GST-Ube1L (protein)
chain: MDALDASKLLDEELYSRQLYVLGSPAMQRIQGARVLVSGLQGLGAEVAKNLVLMGVGSLTLHDPHPTCWSDLAAQFLLSEQDLERSRAEASQELLAQLNRAVQVVVHTGDITEDLLLDFQVVVLTAAKLEEQLKVGTLCHKHGVCFLAADTRGLVGQLFCDFGEDFTVQDPTEAEPLTAAIQHISQGSPGILTLRKGANTHYFRDGDLVTFSGIEGMVELNDCDPRSIHVREDGSLEIGDTTTFSRYLRGGAITEVKRPKTVRHKSLDTALLQPHVVAQSSQEVHHAHCLHQAFCALHKFQHLHGRPPQPWDPVDAETVVGLARDLEPLKRTEEEPLEEPLDEALVRTVALSSAGVLSPMVAMLGAVAAQEVLKAISRKFMPLDQWLYFDALDCLPEDGELLPSPEDCALRGSRYDGQIAVFGAGFQEKLRRQHYLLVGAGAIGCELLKVFALVGLGAGNSGGLTVVDMDHIERSNLSRQFLFRSQDVGRPKAEVAAAAARGLNPDLQVIPLTYPLDPTTEHIYGDNFFSRVDGVAAALDSFQARRYVAARCTHYLKPLLEAGTSGTWGSATVFMPHVTEAYRAPASAAASEDAPYPVCTVRYFPSTAEHTLQWARHEFEELFRLSAETINHHQQAHTSLADMDEPQTLTLLKPVLGVLRVRPQNWQDCVAWALGHWKLCFHYGIKQLLRHFPPNKVLEDGTPFWSGPKQCPQPLEFDTNQDTHLLYVLAAANLYAQMHGLPGSQDWTALRELLKLLPQPDPQQMAPIFASNLELASASAEFGPEQQKELNKALEVWSVGPPLKPLMFEKDDDSNFHVDFVVAAASLRCQNYGIPPVNRAQSKRIVGQIIPAIATTTAAVAGLLGLELYKVVSGPRPRSAFRHSYLHLAENYLIRYMPFAPAIQTFHHLKWTSWDRLKVPAGQPERTLESLLAHLQEQHGLRVRILLHGSALLYAAGWSPEKQAQHLPLRVTELVQQLTGQAPAPGQRVLVLELSCEGDDEDTAFPPLHYEL
activation in vitro (SDS-PAGE, Coomassie); result: activated [4]: While it was active toward ISG15, as expected
activation in vitro (SDS-PAGE, Coomassie); result: not activated [2]: it failed to activate GST-Ub

Source: US20100047255
